From the supplement of paper PMC9170038

Test system: MS2 coat protein
Experiment: apparent KD of MS2 coat protein; designed switch direction (-1 OFF switch, 1 ON switch): -1; higher = weaker reporter binding
How it was run: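 An oligonucleotide input, 200 uM small-molecule ligand, or no input was present during titration of SNAP-549-labelled MS2 coat protein, which was doubled from 0.7 or 1.5 nM to 3 µM. Designed RNA switches had been transcribed on Illumina chips by stalled E. coli RNA polymerase. Apparent KD per design is the median over clusters of curves fitted to normalised cluster fluorescence.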

[1] = input ligand: microRNA oligo, concentration not stated
[2] = Eterna round: R95, input ligand: FMN 200 uM
[3] = Eterna round: R95, input ligand: microRNA oligo, concentration not stated
[4] = Eterna round: R95, input ligand: none

Sequence	apparent KD of MS2 coat protein (input ligand: FMN 200 uM) [nM]	apparent KD of MS2 coat protein (input ligand: none) [nM]	apparent KD of MS2 coat protein [1] [nM]	apparent KD of MS2 coat protein [2] [nM]	apparent KD of MS2 coat protein [3] [nM]	apparent KD of MS2 coat protein [4] [nM]
UGCGAGUAAGGAUAUUCGCGACCGCCCACAAGGGCAGUCGAGAAGAAGGUACUUGAGGAUCACCCAAGUCCUAA [Quondius] (Eterna round: R97, puzzle: Exclusion 4)	89.8	20.8				
UGCGGGCUUUUGAGACCUCACAUGAGGAUCACCCAUGUGCUCGUCUUAUGGGCCGGCCGGCCGUUGGCCGGCCGGCC [-44, -68.1 kcal, A 12%] (Eterna round: R97, puzzle: Sensor, turn-off variant 1)	70.2	67.8				
UGCUACGGAGGAUAUACAUGAGGAUCACCCAUGUGUGAGAUUAGGCCGAGAGGCCAAUGUAGAAGGCCGUAGCU [jl-ex3-4.21 jl mod] (Eterna round: R97, puzzle: Exclusion 3)	339	282				
UGGAAGUGAGGAUAUCCAAUAUAUGACAUGAGGAUCACCCAUGUUUCCACUCGUACCUCCGGAGAAGGCACAAGGU [Ex5 #56] (Eterna round: R97, puzzle: Exclusion 5)	56.5	57.3				
UGGACAUGAGGAUCACCCAUGUAAUACACACCUCAGCCACGAGAGGAUAUGCCCGGAGGACCGGCGCAGAAGGCUCCCAAGAGA [Eternabot solution 10] (Eterna round: R96, puzzle: Exclusion NG 3)	83.8	48.1	29.5			
UGGCUGCUCAGGGAGUGUGACAUGAGGAUCACCCAUGUGGUAGUAAGGAACAAGCUUUUUGCACGUACUUAUGGGUC [JR_SV3TOV1_Sub010] (puzzle: Sensor v3, turn-off variant 1)				268	204	375
UGGCUGCUCAGGGAGUGUGACAUGAGGAUCACCCAUGUGGUGGUAGGGAACAAGCUUUUUGCACGUACUUAUGAGUC [JR_SV3TOV1_Sub009] (puzzle: Sensor v3, turn-off variant 1)				840	107	388
UGGGUUCCAAGUGAGUCAGACAUGAGGAUCACCCAUGUAUAGCAAGCCUUAGCCGUUCGAGCAAAUGGUCUCGUCAG [Eternabot (Original) Solution 36] (Eterna round: R97, puzzle: Sensor, turn-off variant 1)	384	1040				
UGGUAACAUGAGGAUCACCCAUGUCAGGAUAUCAGUAAGAAGAGAGGAGAGUAGAAGAUGAGAAGGGACUAUAU [Excluse me! 9 - Jieux - Exclusion 1] (puzzle: Exclusion 1)				26.4	29.9	37.4
UGGUCACAUGAGGAUCACCCAUGUCAGGAUAUCGUCACUGGAGCCUCGGCUCCAGUGACGAGAAGGGACAUAAU [E1/6-A2] (Eterna round: R97, puzzle: Exclusion 1)	267	254				
UGUAGAGUGGUAGGAUAUCCGGCUGUUUCAGUCGGAGAAGGACCACAGUCACUGGGUCCUUAUAUGGGUGACCAUGUAUCUACU [pwkr exNG1 F6.7] (Eterna round: R96, puzzle: Exclusion NG 1)	558	395	305			
UGUCAGAUGGUAGGAUAUCCUUAUCGCGUGUCCCUUUCCUAACAUGAGGAUCACCCAUGUCGGUGGGAGAAGGGCCGUAUGGUG [salish99_ExNG02_R04_038] (Eterna round: R96, puzzle: Exclusion NG 2)	11.5	13.4	11.2			
UGUGCGUAUGUGAGGAUAUGCUGGUCCUUGGCUCGGCAGAAGGCACAUGAGGAUCACCCAUGUGGUGUCGUACG [salish99_Bmod_ex4_064] (puzzle: Brourd's mod of Exclusion 4)					52.1	
UGUGGGUCAGGAUAUUCUAUUUAUUACAUGAGGAUCACCCAUGUGAAUGUACAAGGGUGUGAAGAAGGGACUUGUG [LRO-Excl5-02-mod A17d by Omei] (Eterna round: R97, puzzle: Exclusion 5)	793	2360				
UGUUGUUACGCAGGAUAUGAGGAUCACCCAUAUAAGGAUAUCGAAAGAGAAGUUCUGAGGAUCACCCAGAAGGGCGGGUUAACA [pwkr exNG2 2xF5 2xFMN.31] (Eterna round: R96, puzzle: Exclusion NG 2)	193	71.1	59			
UGUUGUUACGUAGGAUAUCCACCAACAGGUGGAAGGAUAUGUACGCAGAAGGUUCGCCAACAGGCGGAGAAGGACGUGUUAACA [pwkr exNG2 2xF7 2xFMN.28] (Eterna round: R96, puzzle: Exclusion NG 2)	675	385	1110			
UGUUUAUAUGAAGGAUAUACUUAACAUGAGGAUCACCCAUGUGGUGUUGUGAGUGAGUGAGUUUAGUAGAAGGUCAAGUAUUUU [JMF's solution 54] (Eterna round: R96, puzzle: Exclusion NG 2)	681	395	373			
UUAAACGCAGGAUAUACAUUUUUUUUAUUAUCCUCAUAAAUACAUGAGGAUCACCCAUGUAGAAGGGCGAAAUU [Mat - Exclusion 2 - Mod of Hog - D87] (puzzle: Exclusion 2)					144	
UUAAAUAAUGUAGGAUAUGCAAGGCGAACCUAAGCAGAAGGACAUGAGGAUCACCCAUGUAAUGCGGUCUGCGUACAGAUCGCA [JL ENG1 1.01] (Eterna round: R96, puzzle: Exclusion NG 1)	59.4	24.2	23.2			
UUAAAUAGUGUGAGGAUAUGCUGGUCCUUGGAUCAGCAGAAGGCACAUGAGGAUCACCCAUGUAGUUAAUUUUA [Mat - Exclusion 4 - JL Mod - D22] (puzzle: Brourd's mod of Exclusion 4)					37.4	
UUAAAUCAUGUAGGAUAUGCGUGGAGAAGCUAUGCAGAAGGACAUGAGGAUCACCCAUGUGCUUCCGUCUGCGUACAGAUGGUA [Mat - Exclusion NG 1 - Mod of JL - D7] (Eterna round: R96, puzzle: Exclusion NG 1)	84.5	19.5	17.1			
UUAAAUCAUGUAGGAUAUGCGUGGCGAAGCUAUGCAGAAGGACAUGAGGAUCACCCAUGUGCUUCCGUCUGCGUACAGAUGGAA [JL Eng1 1.08 mod 3] (Eterna round: R96, puzzle: Exclusion NG 1)	81.4	109	80.6			
UUAAAUCAUGUAGGAUAUGCGUGGCGAAGCUAUGCAGAAGGACAUGAGGAUCACCCAUGUUCCUGCGUCCGCGUACGGAUGCAA [JL Eng1 1.21 mod] (Eterna round: R96, puzzle: Exclusion NG 1)	167	18.1	16.3			
UUAAUACAUGUAGGAUAUGCGUGGCGAAGCUAUGCAGAAGGACAUGAGGAUCACCCAUGUCUCUGCGUCCGCGUACGGAUGCAA [JL Eng1 1.21 mod 5] (Eterna round: R96, puzzle: Exclusion NG 1)	13.9	15.8	11.6			
UUAAUGUGAGGAUAUCAAGUGUGAUAGAGUAAUGGUAAAUAUGAGAAGGCACAUGAGGAUCACCCAUGUUCUUC [Mat - Exclusion 4 - Mod of JL - D59] (puzzle: Exclusion 4)					14	
UUAAUGUGAGGAUAUCAGGUGUGCUAGCGUACUGGUACAUCUGAGAAGGCACAUGAGGAUCACCCAUGUUCCUU [JL-ex4-3.27 Brourd mod] (Eterna round: R96, puzzle: Exclusion 4)	59.4	20.6	15.9			
UUAAUGUGAGGAUAUCAGGUGUGCUAGCGUACUGGUACAUCUGAGAAGGCACAUGAGGAUCACCCAUGUUCCUU [JL-ex4-3.27 Brourd mod] (puzzle: Exclusion 4)					16.2	
UUAAUUAAUUAAGGCUGAAGAUCACAUGAGGAUCACCCAUGUAAGGAUAUCAGCUCGAUUAGAGCUGAGAAGGUACAUGCAGCC [ExNG3/18-B1] (Eterna round: R96, puzzle: Exclusion NG 3)	53.9	319	377			
UUAAUUAAUUAAUUAUAAGAUCAACAUGAGGAUCACCCAUGUGAGGAUAUCAGCUCGUUUAGAGCUGAGAAGGCACAAAUAAUU [ExNG3/16-B2] (Eterna round: R96, puzzle: Exclusion NG 3)	208	49.8	45.7			
